{"source": "patent US5710244A", "about": "“Derivatized calcitonins” (priority 1993, dated 1998)", "molecules": {"B1": {"name": "Bipyridine-modified Calcitonin (peptide)", "peptide": "X1-CSNLSTCVLGKLSQELHKLQTYPRTNTGSGTP-NH2", "modifications": "disulfide 1-7", "SMILES": "CC(C)C[C@H](NC(=O)[C@H](CCCCN)NC(=O)CNC(=O)[C@H](CC(C)C)NC(=O)[C@@H](NC(=O)[C@@H]1CSSC[C@H](NC(=O)c2ccnc(-c3cc(C(=O)O)ccn3)c2)C(=O)N[C@@H](CO)C(=O)N[C@@H](CC(N)=O)C(=O)N[C@@H](CC(C)C)C(=O)N[C@@H](CO)C(=O)N[C@@H]([C@@H](C)O)C(=O)N1)C(C)C)C(=O)N[C@@H](CO)C(=O)N[C@@H](CCC(N)=O)C(=O)N[C@@H](CCC(=O)O)C(=O)N[C@@H](CC(C)C)C(=O)N[C@@H](Cc1c[nH]cn1)C(=O)N[C@@H](CCCCN)C(=O)N[C@@H](CC(C)C)C(=O)N[C@@H](CCC(N)=O)C(=O)N[C@H](C(=O)N[C@@H](Cc1ccc(O)cc1)C(=O)N1CCC[C@H]1C(=O)N[C@@H](CCCNC(=N)N)C(=O)N[C@H](C(=O)N[C@@H](CC(N)=O)C(=O)N[C@H](C(=O)NCC(=O)N[C@@H](CO)C(=O)NCC(=O)N[C@H](C(=O)N1CCC[C@H]1C(N)=O)[C@@H](C)O)[C@@H](C)O)[C@@H](C)O)[C@@H](C)O"}, "B2": {"name": "isonipecotic acid modified salmon calcitonin (peptide)", "peptide": "CSNLSTCVLGKLSQELHKLQTYPRTNTGSGTP", "modifications": "N-terminal amino group acylated with isonipecotic acid (amide linkage); C-terminal amide; disulfide Cys1-Cys7"}, "B3": {"name": "DL-pipecolinic acid modified salmon calcitonin (peptide)", "peptide": "B2 peptide", "modifications": "N-terminal amino group acylated with DL-pipecolinic acid (amide linkage); C-terminal amide; disulfide Cys1-Cys7"}, "B4": {"name": "2,2'-bipyridine-5,5'-dicarboxylic acid modified salmon calcitonin (peptide)", "peptide": "X2-CSNLSTCVLGKLSQELHKLQTYPRTNTGSGTP-NH2", "modifications": "disulfide 1-7", "SMILES": "CC(C)C[C@H](NC(=O)[C@H](CCCCN)NC(=O)CNC(=O)[C@H](CC(C)C)NC(=O)[C@@H](NC(=O)[C@@H]1CSSC[C@H](NC(=O)c2ccc(-c3ccc(C(=O)O)cn3)nc2)C(=O)N[C@@H](CO)C(=O)N[C@@H](CC(N)=O)C(=O)N[C@@H](CC(C)C)C(=O)N[C@@H](CO)C(=O)N[C@@H]([C@@H](C)O)C(=O)N1)C(C)C)C(=O)N[C@@H](CO)C(=O)N[C@@H](CCC(N)=O)C(=O)N[C@@H](CCC(=O)O)C(=O)N[C@@H](CC(C)C)C(=O)N[C@@H](Cc1c[nH]cn1)C(=O)N[C@@H](CCCCN)C(=O)N[C@@H](CC(C)C)C(=O)N[C@@H](CCC(N)=O)C(=O)N[C@H](C(=O)N[C@@H](Cc1ccc(O)cc1)C(=O)N1CCC[C@H]1C(=O)N[C@@H](CCCNC(=N)N)C(=O)N[C@H](C(=O)N[C@@H](CC(N)=O)C(=O)N[C@H](C(=O)NCC(=O)N[C@@H](CO)C(=O)NCC(=O)N[C@H](C(=O)N1CCC[C@H]1C(N)=O)[C@@H](C)O)[C@@H](C)O)[C@@H](C)O)[C@@H](C)O"}, "B5": {"name": "nipecotic acid modified salmon calcitonin (peptide)", "peptide": "{nipecotic acid}-CSNLSTCVLGKLSQELHKLQTYPRTNTGSGTP-NH2", "modifications": "disulfide 1-7"}}, "note": "Bridge positions count the residues as written; N and C are the ends. * marks the point of attachment. X1 = 2,2'‑bipyridine‑4,4'‑dicarboxylic acid, O=C(O)c1ccnc(-c2cc(C(=O)*)ccn2)c1; X2 = 2,2'‑bipyridine‑5,5'‑dicarboxylic acid, O=C(O)c1ccc(-c2ccc(C(=O)*)cn2)nc1", "data": [{"target": "T1, recombinant human calcitonin receptor (human, UniProt P30988)", "T1 sequence": "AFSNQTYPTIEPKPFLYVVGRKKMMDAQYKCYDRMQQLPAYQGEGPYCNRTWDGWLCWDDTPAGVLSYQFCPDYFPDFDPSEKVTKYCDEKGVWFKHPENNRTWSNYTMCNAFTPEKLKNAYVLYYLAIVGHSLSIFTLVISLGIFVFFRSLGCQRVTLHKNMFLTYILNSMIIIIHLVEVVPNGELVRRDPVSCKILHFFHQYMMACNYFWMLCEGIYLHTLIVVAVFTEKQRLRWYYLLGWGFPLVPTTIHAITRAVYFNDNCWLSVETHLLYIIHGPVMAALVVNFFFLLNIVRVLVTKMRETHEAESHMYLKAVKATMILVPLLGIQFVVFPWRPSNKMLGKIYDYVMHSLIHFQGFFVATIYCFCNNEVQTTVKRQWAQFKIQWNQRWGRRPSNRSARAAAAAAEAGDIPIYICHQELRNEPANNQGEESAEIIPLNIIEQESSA", "assay": "cell-based or functional assay", "units": {"% SCT EC50 (CRE-linked luciferase induction)": "% SCT EC50"}, "values": [{"molecule": "B1", "% SCT EC50 (CRE-linked luciferase induction)": 97}, {"molecule": "B2", "% SCT EC50 (CRE-linked luciferase induction)": 146}, {"molecule": "B3", "% SCT EC50 (CRE-linked luciferase induction)": 230}, {"molecule": "B4", "% SCT EC50 (CRE-linked luciferase induction)": 199}, {"molecule": "B5", "% SCT EC50 (CRE-linked luciferase induction)": 243}]}, {"target": "endogenous hamster calcitonin receptor (hamster)", "assay": "not given", "units": {"% SCT EC50 (CRE-linked luciferase induction)": "% SCT EC50"}, "values": [{"molecule": "human calcitonin (from UniProt P01258) (peptide)", "% SCT EC50 (CRE-linked luciferase induction)": 5900}, {"molecule": "B1", "% SCT EC50 (CRE-linked luciferase induction)": 73}, {"molecule": "B2", "% SCT EC50 (CRE-linked luciferase induction)": 106}, {"molecule": "B3", "% SCT EC50 (CRE-linked luciferase induction)": 147}, {"molecule": "B4", "% SCT EC50 (CRE-linked luciferase induction)": 125}, {"molecule": "B5", "% SCT EC50 (CRE-linked luciferase induction)": 152}]}]}
